Assay results from ChEMBL document CHEMBL1145505, “Bisphosphonates target multiple sites in both cis- and trans-prenyltransferases” (Proc Natl Acad Sci U S A, 2007).

B1: Geranylgeranyl pyrophosphate synthase BTS1 (Saccharomyces cerevisiae S288c), Q12051 (protein)
chain: MEAKIDELINNDPVWSSQNESLISKPYNHILLKPGKNFRLNLIVQINRVMNLPKDQLAIVSQIVELLHNSSLLIDDIEDNAPLRRGQTTSHLIFGVPSTINTANYMYFRAMQLVSQLTTKEPLYHNLITIFNEELINLHRGQGLDIYWRDFLPEIIPTQEMYLNMVMNKTGGLFRLTLRLMEALSPSSHHGHSLVPFINLLGIIYQIRDDYLNLKDFQMSSEKGFAEDITEGKLSFPIVHALNFTKTKGQTEQHNEILRILLLRTSDKDIKLKLIQILEFDTNSLAYTKNFINQLVNMIKNDNENKYLPDLASHSDTATNLHDELLYIIDHLSEL
B2: Geranylgeranyl pyrophosphate synthase (Homo sapiens), O95749 (protein)
chain: MEKTQETVQRILLEPYKYLLQLPGKQVRTKLSQAFNHWLKVPEDKLQIIIEVTEMLHNASLLIDDIEDNSKLRRGFPVAHSIYGIPSVINSANYVYFLGLEKVLTLDHPDAVKLFTRQLLELHQGQGLDIYWRDNYTCPTEEEYKAMVLQKTGGLFGLAVGLMQLFSDYKEDLKPLLNTLGLFFQIRDDYANLHSKEYSENKSFCEDLTEGKFSFPTIHAIWSRPESTQVQNILRQRTENIDIKKYCVHYLEDVGSFEYTRNTLKELEAKAYKQIDARGGNPELVALVKHLSKMFKEENE

Key:
[1] = substrate: CC(C)=CCC/C(C)=C/CC/C(C)=C/COP(=O)(O)OP(=O)(O)O; test: Activity at Saccharomyces cerevisiae GGPPS
[2] = substrate: CC(C)=CCC/C(C)=C/CC/C(C)=C/COP(=O)(O)OP(=O)(O)O; test: Activity at human GGPPS

Protein | Km [1] | Km [2]
B1 | 3.2 µM | –
B2 | – | 0.71 µM
